Data as given in the supplement of paper PMC5998384.

Experiments:
HeLa Kyoto [1] = test: solubility in G1/S (NP-40 vs SDS abundance) (log2 ratio); higher = more soluble; settings: cell cycle stage: G1/S
HeLa Kyoto [2] = test: melting temperature (median over replicates), in situ; higher = more thermally stable
HeLa Kyoto [3] = test: solubility change mitosis vs G1/S (difference of NP-40 vs SDS log2 ratios) (log2 ratio difference); higher = more soluble in mitosis
HeLa Kyoto [4] = test: thermal stability score vs G1/S (z-score of summed log2 fold changes over temperatures); higher = more thermally stable than in G1/S
[5] = cell cycle stage: early G1 (4.5 h after nocodazole release)
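For melting temperature (median over replicates), in situ in this document: HeLa Kyoto cells synchronized by double thymidine or nocodazole block, proteins quantified by TMT10plex mass spectrometry, three independent biological replicates.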
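For solubility change mitosis vs G1/S (difference of NP-40 vs SDS log2 ratios) in this document: synchronized HeLa Kyoto cells (double thymidine block for G1/S, nocodazole release for mitosis), protein amounts in NP-40 versus SDS lysates quantified by mass spectrometry, three biological replicates.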
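For solubility in G1/S (NP-40 vs SDS abundance) in this document: HeLa Kyoto cells arrested at G1/S by double thymidine block, proteins quantified by TMT10plex mass spectrometry in mild NP-40 versus SDS extracts, three biological replicates.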
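For thermal stability score vs G1/S (z-score of summed log2 fold changes over temperatures) in this document: synchronized HeLa Kyoto cells, proteins quantified by TMT10plex mass spectrometry, three biological replicates, mitosis taken 0.5 h after nocodazole release, G1/S directly after double thymidine block.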

Row | Sequence | solubility in G1/S (log2) (HeLa Kyoto [1]) | melting temperature (HeLa Kyoto [2]; cell cycle stage: G1/S) | melting temperature (HeLa Kyoto [2]; cell cycle stage: mitosis) | solubility change mitosis (log2) (HeLa Kyoto [3]) | thermal stability score (HeLa Kyoto [4]; [5]) | thermal stability score (HeLa Kyoto [4]; cell cycle stage: mitosis)
1 | MTSGATRYRLSCSLRGHELDVRGLVCCAYPPGAFVSVSRDRTTRLWAPDSPNRSFTEMHCMSGHSNFVSCVCIIPSSDIYPHGLIATGGNDHNICIFSLDSPMPLYILKGHKNTVCSLSSGKFGTLLSGSWDTTAKVWLNDKCMMTLQGHTAAVWAVKILPEQGLMLTGSADKTVKLWKAGRCERTFSGHEDCVRGLAILSETEFLSCANDASIRRWQITGECLEVYYGHTNYIYSISVFPNCRDFVTTAEDRSLRIWKHGECAQTIRLPAQSIWCCCVLDNGDIVVGASDGIIRVFTESEDRTASAEEIKAFEKELSHATIDSKTGDLGDINAEQLPGREHLNEPGTREGQTRLIRDGEKVEAYQWSVSEGRWIKIGDVVGSSGANQQTSGKVLYEGKEFDYVFSIDVNEGGPSYKLPYNTSDDPWLTAYNFLQKNDLNPMFLDQVAKFIIDNTKGQMLGLGNPSFSDPFTGGGRYVPGSSGSSNTLPTADPFTGAGRYVPGSASMGTTMAGVDPFTGNSAYRSAASKTMNIYFPKKEAVTFDQANPTQILGKLKELNGTAPEEKKLTEDDLILLEKILSLICNSSSEKPTVQQLQILWKAINCPEDIVFPALDILRLSIKHPSVNENFCNEKEGAQFSSHLINLLNPKGKPANQLLALRTFCNCFVGQAGQKLMMSQRESLMSHAIELKSGSNKNIHIALATLALNYSVCFHKDHNIEGKAQCLSLISTILEVVQDLEATFRLLVALGTLISDDSNAVQLAKSLGVDSQIKKYSSVSEPAKVSECCRFILNLL [PLAA] | -0.0389 | 49.5 °C | 50 °C | -0.198 | 1.32 | 1.3
2 | MTSHYVIAIFALMSSCLATAGPEPGALCELSPVSASHPVQALMESFTVLSGCASRGTTGLPQEVHVLNLRTAGQGPGQLQREVTLHLNPISSVHIHHKSVVFLLNSPHPLVWHLKTERLATGVSRLFLVSEGSVVQFSSANFSLTAETEERNFPHGNEHLLNWARKEYGAVTSFTELKIARNIYIKVGEDQVFPPKCNIGKNFLSLNYLAEYLQPKAAEGCVMSSQPQNEEVHIIELITPNSNPYSAFQVDITIDIRPSQEDLEVVKNLILILKCKKSVNWVIKSFDVKGSLKIIAPNSIGFGKESERSMTMTKSIRDDIPSTQGNLVKWALDNGYSPITSYTMAPVANRFHLRLENNAEEMGDEEVHTIPPELRILLDPGALPALQNPPIRGGEGQNGGLPFPFPDISRRVWNEEGEDGLPRPKDPVIPSIQLFPGLREPEEVQGSVDIALSVKCDNEKMIVAVEKDSFQASGYSGMDVTLLDPTCKAKMNGTHFVLESPLNGCGTRPRWSALDGVVYYNSIVIQVPALGDSSGWPDGYEDLESGDNGFPGDMDEGDASLFTRPEIVVFNCSLQQVRNPSSFQEQPHGNITFNMELYNTDLFLVPSQGVFSVPENGHVYVEVSVTKAEQELGFAIQTCFISPYSNPDRMSHYTIIENICPKDESVKFYSPKRVHFPIPQADMDKKRFSFVFKPVFNTSLLFLQCELTLCTKMEKHPQKLPKCVPPDEACTSLDASIIWAMMQNKKTFTKPLAVIHHEAESKEKGPSMKEPNPISPPIFHGLDTLTVMGIAFAAFVIGALLTGALWYIYSHTGETAGRQQVPTSPPASENSSAAHSIGSTQSTPCSSSSTA [TGFBR3] | -0.155 | 53.8 °C | 54.4 °C | -0.094 | 1.1 | 2.26
3 | MTSKKLVNSVAGCADDALAGLVACNPNLQLLQGHRVALRSDLDSLKGRVALLSGGGSGHEPAHAGFIGKGMLTGVIAGAVFTSPAVGSILAAIRAVAQAGTVGTLLIVKNYTGDRLNFGLAREQARAEGIPVEMVVIGDDSAFTVLKKAGRRGLCGTVLIHKVAGALAEAGVGLEEIAKQVNVVAKAMGTLGVSLSSCSVPGSKPTFELSADEVELGLGIHGEAGVRRIKMATADEIVKLMLDHMTNTTNASHVPVQPGSSVVMMVNNLGGLSFLELGIIADATVRSLEGRGVKIARALVGTFMSALEMPGISLTLLLVDEPLLKLIDAETTAAAWPNVAAVSITGRKRSRVAPAEPQEAPDSTAAGGSASKRMALVLERVCSTLLGLEEHLNALDRAAGDGDCGTTHSRAARAIQEWLKEGPPPASPAQLLSKLSVLLLEKMGGSSGALYGLFLTAAAQPLKAKTSLPAWSAAMDAGLEAMQKYGKAAPGDRTMLDSLWAAGQELQAWKSPGADLLQVLTKAVKSAEAAAEATKNMEAGAGRASYISSARLEQPDPGAVAAAAILRAILEVLQS [TKFC] | 0.321 | 54.8 °C | 55 °C | -0.0666 | 1.34 | 0.558
